Paper PMC3544317 (2014)

T1: FVa (FVa2) (Homo sapiens, UniProt P12259)
T1 chain 1: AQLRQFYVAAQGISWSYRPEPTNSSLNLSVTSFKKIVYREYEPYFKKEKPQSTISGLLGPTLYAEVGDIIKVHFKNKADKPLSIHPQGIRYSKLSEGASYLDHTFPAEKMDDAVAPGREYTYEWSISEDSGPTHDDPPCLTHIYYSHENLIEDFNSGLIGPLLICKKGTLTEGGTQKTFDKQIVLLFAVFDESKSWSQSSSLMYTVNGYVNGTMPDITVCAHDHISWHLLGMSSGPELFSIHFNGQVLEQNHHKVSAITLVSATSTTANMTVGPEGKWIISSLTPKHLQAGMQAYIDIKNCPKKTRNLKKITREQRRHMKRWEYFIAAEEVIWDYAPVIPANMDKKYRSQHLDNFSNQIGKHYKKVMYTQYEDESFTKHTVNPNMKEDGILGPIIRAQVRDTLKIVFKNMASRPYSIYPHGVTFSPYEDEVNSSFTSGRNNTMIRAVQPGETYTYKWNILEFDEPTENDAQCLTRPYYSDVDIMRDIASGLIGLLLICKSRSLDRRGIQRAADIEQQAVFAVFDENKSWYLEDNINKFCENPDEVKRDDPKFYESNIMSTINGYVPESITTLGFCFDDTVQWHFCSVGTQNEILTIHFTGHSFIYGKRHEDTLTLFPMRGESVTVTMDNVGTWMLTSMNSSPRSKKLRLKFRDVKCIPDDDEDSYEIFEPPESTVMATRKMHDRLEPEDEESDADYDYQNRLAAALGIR
T1 chain 2: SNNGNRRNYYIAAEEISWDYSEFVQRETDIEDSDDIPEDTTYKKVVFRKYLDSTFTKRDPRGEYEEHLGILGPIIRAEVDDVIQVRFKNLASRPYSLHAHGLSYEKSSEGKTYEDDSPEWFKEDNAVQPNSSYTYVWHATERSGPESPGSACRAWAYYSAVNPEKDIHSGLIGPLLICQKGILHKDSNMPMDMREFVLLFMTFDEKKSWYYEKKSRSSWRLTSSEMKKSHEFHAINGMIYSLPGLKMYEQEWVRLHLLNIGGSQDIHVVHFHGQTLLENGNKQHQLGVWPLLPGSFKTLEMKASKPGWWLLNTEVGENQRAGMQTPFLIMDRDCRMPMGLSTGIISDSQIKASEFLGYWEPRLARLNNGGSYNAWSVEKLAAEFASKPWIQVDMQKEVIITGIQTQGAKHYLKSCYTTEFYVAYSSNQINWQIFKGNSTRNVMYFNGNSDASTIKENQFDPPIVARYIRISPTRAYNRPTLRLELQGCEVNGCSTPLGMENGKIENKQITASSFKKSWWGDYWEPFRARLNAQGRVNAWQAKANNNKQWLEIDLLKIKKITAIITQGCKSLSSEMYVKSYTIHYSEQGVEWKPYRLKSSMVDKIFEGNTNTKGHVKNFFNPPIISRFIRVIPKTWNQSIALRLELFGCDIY

T2: FXa (Homo sapiens, UniProt P00742)
T2 chain 1: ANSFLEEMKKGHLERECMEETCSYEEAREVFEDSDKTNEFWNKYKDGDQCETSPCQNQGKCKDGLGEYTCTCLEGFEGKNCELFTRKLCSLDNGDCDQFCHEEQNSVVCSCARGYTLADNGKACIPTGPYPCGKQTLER
T2 chain 2: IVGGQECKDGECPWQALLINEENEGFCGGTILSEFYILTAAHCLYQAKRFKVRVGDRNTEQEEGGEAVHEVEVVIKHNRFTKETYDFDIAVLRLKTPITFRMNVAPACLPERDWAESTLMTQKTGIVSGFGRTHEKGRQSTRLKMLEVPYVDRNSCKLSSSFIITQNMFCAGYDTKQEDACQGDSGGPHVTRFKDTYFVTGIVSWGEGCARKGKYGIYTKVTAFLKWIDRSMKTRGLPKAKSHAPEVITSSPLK

T3: DEGR-FXa (Homo sapiens, UniProt P00742)
T3 chain 1: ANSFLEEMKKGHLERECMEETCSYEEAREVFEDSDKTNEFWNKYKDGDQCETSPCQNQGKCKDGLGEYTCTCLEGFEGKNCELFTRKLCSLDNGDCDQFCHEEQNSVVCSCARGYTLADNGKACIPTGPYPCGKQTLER
T3 chain 2: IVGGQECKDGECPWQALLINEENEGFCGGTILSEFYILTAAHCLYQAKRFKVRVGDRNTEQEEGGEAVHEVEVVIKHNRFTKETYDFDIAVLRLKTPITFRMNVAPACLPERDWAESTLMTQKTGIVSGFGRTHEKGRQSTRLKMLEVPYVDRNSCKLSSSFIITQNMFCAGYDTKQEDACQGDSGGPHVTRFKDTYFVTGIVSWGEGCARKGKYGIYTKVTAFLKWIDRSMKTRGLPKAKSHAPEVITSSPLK


Assays:
FVa (FVa2) [1] = target: T1, FVa (FVa2); experiment: prothrombinase activity titration
FVa (FVa2) [2] = target: T1, FVa (FVa2); experiment: prothrombinase activity titration
FVa (FVa2) [3] = target: T1, FVa (FVa2); experiment: prothrombinase activity titration
FXa = target: T2, FXa; experiment: prothrombin activation rate vs FXa
FVa (FVa2) [4] = target: T1, FVa (FVa2); experiment: global fit of activity, dimer competition model
FVa (FVa2) [5] = target: T1, FVa (FVa2); experiment: global fit of activity
DEGR-FXa = target: T3, DEGR-FXa; experiment: fluorescence of active-site-labeled FXa

Binder | Kd (FVa (FVa2) [1]) | Kd (FVa (FVa2) [2]) | Kd (FVa (FVa2) [3]) | Kd (FXa) | Kd (FVa (FVa2) [4]) | Kd (FVa (FVa2) [5]) | Kd (DEGR-FXa)
FXa (protein, C6PS, 5 mM Ca2+) chain 1: ANSFLEEMKKGHLERECMEETCSYEEAREVFEDSDKTNEFWNKYKDGDQCETSPCQNQGKCKDGLGEYTCTCLEGFEGKNCELFTRKLCSLDNGDCDQFCHEEQNSVVCSCARGYTLADNGKACIPTGPYPCGKQTLER chain 2: IVGGQECKDGECPWQALLINEENEGFCGGTILSEFYILTAAHCLYQAKRFKVRVGDRNTEQEEGGEAVHEVEVVIKHNRFTKETYDFDIAVLRLKTPITFRMNVAPACLPERDWAESTLMTQKTGIVSGFGRTHEKGRQSTRLKMLEVPYVDRNSCKLSSSFIITQNMFCAGYDTKQEDACQGDSGGPHVTRFKDTYFVTGIVSWGEGCARKGKYGIYTKVTAFLKWIDRSMKTRGLPKAKSHAPEVITSSPLK | 20 nM | 43 nM | 2.2 nM | 16 nM | 0.32 nM | 0.43 nM | 
FXa (protein, C6PS, 3 mM Ca2+) chain 1: ANSFLEEMKKGHLERECMEETCSYEEAREVFEDSDKTNEFWNKYKDGDQCETSPCQNQGKCKDGLGEYTCTCLEGFEGKNCELFTRKLCSLDNGDCDQFCHEEQNSVVCSCARGYTLADNGKACIPTGPYPCGKQTLER chain 2: IVGGQECKDGECPWQALLINEENEGFCGGTILSEFYILTAAHCLYQAKRFKVRVGDRNTEQEEGGEAVHEVEVVIKHNRFTKETYDFDIAVLRLKTPITFRMNVAPACLPERDWAESTLMTQKTGIVSGFGRTHEKGRQSTRLKMLEVPYVDRNSCKLSSSFIITQNMFCAGYDTKQEDACQGDSGGPHVTRFKDTYFVTGIVSWGEGCARKGKYGIYTKVTAFLKWIDRSMKTRGLPKAKSHAPEVITSSPLK |  | 8 nM | 1.7 nM |  |  |  | 
DEGR-FXa (protein, DEGR active-site label, C6PS, 3 mM Ca2+) chain 1: ANSFLEEMKKGHLERECMEETCSYEEAREVFEDSDKTNEFWNKYKDGDQCETSPCQNQGKCKDGLGEYTCTCLEGFEGKNCELFTRKLCSLDNGDCDQFCHEEQNSVVCSCARGYTLADNGKACIPTGPYPCGKQTLER chain 2: IVGGQECKDGECPWQALLINEENEGFCGGTILSEFYILTAAHCLYQAKRFKVRVGDRNTEQEEGGEAVHEVEVVIKHNRFTKETYDFDIAVLRLKTPITFRMNVAPACLPERDWAESTLMTQKTGIVSGFGRTHEKGRQSTRLKMLEVPYVDRNSCKLSSSFIITQNMFCAGYDTKQEDACQGDSGGPHVTRFKDTYFVTGIVSWGEGCARKGKYGIYTKVTAFLKWIDRSMKTRGLPKAKSHAPEVITSSPLK |  |  |  |  |  |  | 600 nM
